Assay results taken from the nanobody polyreactivity screen of Harvey et al. (2022).

Assay: yeast display, Sf9 membrane polyspecificity reagent, FACS + sequencing; frameworks hold sequencing errors
Outline: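 Galactose-induced (36–48 hours) yeast carrying a synthetic nanobody display library were exposed to 10% biotinylated, detergent-solubilized Sf9 membrane reagent at 4 °C for 1 hour. FACS followed streptavidin microbead enrichment, using low and high (top ~1%) gates for expression (anti-HA) and reagent binding (streptavidin). Colony PCR, MiSeq 2 × 250 sequencing and CDR-length filtering followed. Labels for polyreactivity reflect the gate of origin.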

| Sequence | polyreactivity (PSR sort gate) |
| --- | --- |
| QVQLVESGGGLVQAGGSLRLSCAASGFTYLYAMGWYRQAPGKESELDAAISYSGGSTYYADSVKGRFTISRDNAKNTVYLQMNSMKPEDTAVYYCAAGYGTVRGVSYDYWGQGTQVTVSS | low polyreactivity |
| QVQLVESGGGLVQAGGSLRLSCAASGFTYPPYAMGWYRQAPGKERELVAAISSAGSTKYADSVKGRFTISRDNAKNTVYLQMNSLKPEDTAVYYCAARWARSYDYWGQGTQVTVSS | low polyreactivity |
| QVQLVESGGGLVQAGGSLRLSCAASGGIDYTNAMGWYRQAPGKERELVAAIRKNGDSTNYADSVKGRFTISRDNAKNTVYLQMNSLKPEDTAVYYCNAELWPWAYDYWGQGTQVTVSS | low polyreactivity |
| QVQLVESGGGLVQAGGSLRLSCAASGGIFALNDMGWYRQAPGKERELVAAINGAGTYYADSVKGRFTISRDNAKNTVYLQMNSLKPEETAVYYCARRWLHWEYARTWTRVEYDYWGQGTQVTVSS | low polyreactivity |
| QVQLVESGGGLVQAGGSLRLSCAASGGIFARNVMGWYRQAPGKERELVAAISGSGGSTYYADSVKGRFTISRDNAKKTVYLQMNSLKPEDTAVYYCAARTPGVSVYKDGYWGQGTQVTVSS | low polyreactivity |
| QVQLVESGGGLVQAGGSLRLSCAASGGIFAVYAMGWYRQAPGKERELVAAITWRGGSTRYADSVKGRFTISRDNAKTTVYLQMNSLKPEDTAVYYCAVRSTGYPSRYYFWGQGTQVTVSS | high polyreactivity |
| QVQLVESGGGLVQAGGSLRLSCAASGGIFDFYAMGWYRPAPGKERELVAAITRSGSSTFYADSVKGRFTLSRDNAKNTVDLQMNSLKPEDTAIYYCAADYSHLPIAWYYYWGQGTQVTVSS | low polyreactivity |
| QVQLVESGGGLVQAGGSLRLSCAASGGIFDFYAMGWYRQAPGKERELVAAITRSGSSTFYADSVKGRFTISRDNAKNTVYLQMNSLKPEDTAVYYCATRPTSDFVKRRVYEWLDYWGQGTQVTVSS | low polyreactivity |
| QVQLVESGGGLVQAGGSLRLSCAASGGIFDRYAMGWYRQAPGKERELVAAITSGGSTNYADSVKGRFTISRDNAKNTVYLQMISLKPEDTAVYYCNADLGILSGVAEGPTFREYDYWGQGTQVTVSS | low polyreactivity |
| QVQLVESGGGLVQAGGSLRLSCAASGGIFDTYAMGWYRQAPGKERELVAAISSTGGSSYYADSVKGRFTISRDNAKNTVYLQMNSLKPEDTAVYYCNAVLARFWRYRRWEYDYWGQGTQVTVSS | high polyreactivity |
| QVQLVESGGGLVQAGGSLRLSCAASGGIFDVYAMGWYRQAPGKERELVAAITASGGSTYYADSVKGRFTISRDNAKNTVYLQMNSLKPEDTAVYYCNAYYYYLFHRYDYWGQGTQVTVSS | low polyreactivity |
| QVQLVESGGGLVQAGGSLRLSCAASGGIFERNDMGWYRQAPGKERELVAGISSVGSTNYADSVKGRFTISRDNAKNTVYLQMNSLKPEDTAVYYCAAPTKREFRYLRYDYWGQGTQVTVSS | low polyreactivity |
| QVQLVESGGGLVQAGGSLRLSCAASGGIFGGYAMGWYRQAPGKAGALVAVITSGGSTYYADSVKGRFTISRDNAKNTVYLQMNSLKPEDTAVYYCAADGHSYSYSTYDYWGQGTQVTVSS | low polyreactivity |
| QVQLVESGGGLVQAGGSLRLSCAASGGIFGPYAMGWYRQAPGKERELVATITRNGGSTRYADSVKGRFTISRDNAKNTVYLQMNSLKPEDTAVYYCAARGYLDMGYWGQGTQVTVSS | high polyreactivity |
| QVQLVESGGGLVQAGGSLRLSCAASGGIFGQYTMGWYRQAPGKERELVAGISKRGTLTRYADSVKGRFTISRDNAKNTVYLQMNSLKPEYSAVYYCNADYVGFFWEYDYWGQGTQVTVSS | high polyreactivity |
| QVQLVESGGGLVQAGGSLRLSCAASGGIFGSYAMAWYRQAPGKERELVAAISWTGGSTYYADSVKGRFTISRDNAKNTVYLQMNSLKPEDTAVYYCNADTYRRAQLRFNSWGQGTQVTVSS | low polyreactivity |
| QVQLVESGGGLVQAGGSLRLSCAASGGIFGYYVMGWYRQAAGNERELVAVITRGGSTNYADSVKGRFTISRDNAKNTVYLQMNSLKPEDTAVYYCAKDVPYRRVRSEYWGQGTQVTVSS | low polyreactivity |
| QVQLVESGGGLVQAGGSLRLSCAASGGIFIKYAIGWYRPAPGKERELVAAITYSGGSTYYADSVKGRFTISRDNAKNTVYLQMNCLKPEDTAVYYCAADTLRQYDYEYWGQGTQVTVSS | high polyreactivity |
| QVQLVESGGGLVQAGGSLRLSCAASGGIFKAYAMGWYRQAPGKERELVAVITIGGRTTYADSVKGRFTISRDNAKNTVYLQMNSLKPEDTAVYYCAKTNYNWLSTAEHDYWGQGTQVTVSS | low polyreactivity |
| QVQLVESGGGLVQAGGSLRLSCAASGGIFLDYVMGWYRPATGKQRELVAAISGSGGTNYADSVKGRFTISRDNAKNTVYLQMNSLKPEDTAVYYCAAVGYYSYSYYTKVGVDYWGQGTQVTVSS | high polyreactivity |
| QVQLVESGGGLVQAGGSLRLSCAASGGIFLVYTMGWYRQAPGKEREMVAAITSGGSTKYADSVKGRFTISRDNAKNTVYFQMNSLKPEDTAVYYCAAGVQYARYQARYFYWGQGTPVTVSS | high polyreactivity |
| QVQLVESGGGLVQAGGSLRLSCAASGGIFNRYAMGWYRPAPGKERELVAGITRSGGSTSYADSVKGRFTISRDNAKNTVYLQMNSLKPEDTAVYYCNKVAYYASSSYYRFGAYGYWGQGTQVTVSS | high polyreactivity |

| Sequence | polyreactivity (PSR sort gate) |
| --- | --- |
| QVQLVESGGGLVQAGGSLRLSCAASGGIFPHYVMGWYRQAPGKERELVAAITWSGGRTYYADSVKGRFTISRDNAKNTVYLQMNSMKPEDTAVYYCAADPFYLTKSGGWGDYWGQGTQVTVSS | low polyreactivity |
| QVQLVESGGGLVQAGGSLRLSCAASGGIFPKNAMGWYRQAPGKERELVAAINWSGGTTNYADSVKGRFTISRDNAKNTVYLQMNSLKPEDTAVYYCAKQGLWIFVVVEMDYWGQGTQVNVSS | low polyreactivity |
| QVQLVESGGGLVQAGGSLRLSCAASGGIFPQYAMGWYRQAPGKERQLVAAISRRGGRTYYADSVKGRFTISRDNAKNTDYLQMNSLKPEDTAVYYCNAGGSSGYDYWGQGTQVTVSS | high polyreactivity |
| QVQLVESGGGLVQAGGSLRLSCAASGGIFPYYAMGWYRQAPGKERELVADISSGGSTYYADSVKGRFTISRDNAKNTVYLQMNSLKPEDTAVYYCAADAGQYFTYSGDDNHDYWGQGTQVTVSS | low polyreactivity |
| QVQLVESGGGLVQAGGSLRLSCAASGGIFRHNAMGWYRQAPGKERELVAAISRSGGNTYYADSVKGRFTISRDNAKNTVYLQMNSLKPEDTAVYYCNKIEYDSWADHVYWGQGTQVTVSS | low polyreactivity |
| QVQLVESGGGLVQAGGSLRLSCAASGGIFRYAMGWYRQAPGKEREFVAAITTRGGSTYYADSVKARFTISRDNAKNTVYLQMNSLKPEDTAVYYCAARRYSGRNKYDYWGQGTQLTVSS | high polyreactivity |
| QVQLVESGGGLVQAGGSLRLSCAASGGIFRYYALGWYRPAPGKERELVAASSRSGDSTYYADSVKGRFTISRDNAKNTVYLQMNSLKPEDTAVYYCAKDNDDVHLVHLDYNSDRYGYWGPGTQVTVSS | high polyreactivity |
| QVQLVESGGGLVQAGGSLRLSCAASGGIFRYYAMGWYRQAPGKERELVATITSGSITNYADSVKGRFTISRDNAKNTVYLQMNSLKPEDTAVYYCAALGAFPSLEFDYWGQGTQVTVSS | low polyreactivity |
| QVQLVESGGGLVQAGGSLRLSCAASGGIFSGNDMGWYRQAPGKERELVATITYSGGTTYYADSVKGRFTISRDNAKNTVYLQMNSLKPEDTAVYYCAADEYGPHTFSPEYDSWGQGTQVTVSS | low polyreactivity |
| QVQLVESGGGLVQAGGSLRLSCAASGGIFSGYAMGWYRQAPGKARELVAAISRRGTRTYYADSVKGRFTISRDNAKNTVDLQKNSLTPEDTAVYYCNAELDSLGTYDYWGQGTQVTVSS | high polyreactivity |
| QVQLVESGGGLVQAGGSLRLSCAASGGIFSPNAMGWYRQAPGKERELVAAISSNGGSTNYADSVKGRFTISRDHAKNTVYLQMNSLKPEDTAVYYCAGLQKRRSYWRPFYWGQGTQVTVSS | low polyreactivity |
| QVQLVESGGGLVQAGGSLRLSCAASGGIFSPNAMGWYRQAPGKERELVAAISSNGGSTNYADSVKGRFTISRDNAKNTVYLQMNSLKPEDTAVFYCAGLQLRRSYRRPFYWGQGTQVTVSS | low polyreactivity |
| QVQLVESGGGLVQAGGSLRLSCAASGGIFSQYAMGWYRQAPGKERELVAAINSGVGTNYADSVKGRFTISRDNAKNTVFLQMNSLKPEDTAVYYCAATDDRLWTFDVASYRNDYWGQGTQVTVSS | low polyreactivity |
| QVQLVESGGGLVQAGGSLRLSCAASGGIFSVYAMGWYRQPPGKERELVASITVSGGSTSYADSVKGRFTISRDTAKNTVYLQMNSLKPEDTAVYYCNTDFGQAHTLSWYEDMDYWGQGTQVTVSS | low polyreactivity |
| QVQLVESGGGLVQAGGSLRLSCAASGGIFSYNALGWYRQAPGKERELVAAISYSSTRTYYADSVKGRFTISRDNAKKTVYLQMNSLKREDTAVYYCAARLSRTRHTSDYWGQGTQVTVSS | high polyreactivity |
| QVQLVESGGGLVQAGGSLRLSCAASGGIFTNNAMGWYRQAPGKERELVAAITGSGASTYYADSVKGRFTISRDNAKNTVYLQMNSLKPEDTAVYYCAALSKYYAPLSRYDYWGQGTQVTVSS | high polyreactivity |
| QVQLVESGGGLVQAGGSLRLSCAASGGIFTYNAMGWYIQAPGKERELVAAITWNGGRTYYADSVKGRFTISRDTAKNTVYLQMNSLKPEDTAVYYCAARSPVKRQSRKQYYYWGQGTQVTVSS | high polyreactivity |
| QVQLVESGGGLVQAGGSLRLSCAASGGIFVLNAMGWYRQAPGKERELVATITSSGGSTYYADSVKGRFTISRDNAKNTVYLQMNSLKPEDTAVYYCNADWYLWSTFAQGYGYWGQGTQVTVSS | high polyreactivity |
| QVQLVESGGGLVQAGGSLRLSCAASGGIFWAYAMGWYRQAPGKERELVAAITTLGTSTYYADSVKGRFTISRDNAKNTVYLQMNSLKPEDTGVYYCAAVDPYSYSFDYWGQGTQVTVSS | high polyreactivity |
| QVQLVESGGGLVQAGGSLRLSCAASGGIFWYYTRGWYRQAPGKERELVATISSGGRTYYADSVKGRFTISRDNAKNTVYLQMNSLKPEDTAVYYCAKSYRRRQGYSYWGQGTQVTVSS | high polyreactivity |
| QVQLVESGGGLVQAGGSLRLSCAASGGIFYHNAMGWYRQAPGKERELVAAISGRGGRTYYADSVKGRFTISRDNAKNTVYLQMNSLKPEDTAVYYCDADQYKDFDYWGQGTQVTVSS | low polyreactivity |
